# Measurements published in patent US20220010021A1 (Sanofi, published 2022).
# T1: beta-Klotho (KLB) (Homo sapiens (Human), UniProt Q86Z14 1-996)
# T1 construct: also called β-Klotho; not shown: C-terminal His tag of the bought R&D Systems protein
# T1 sequence: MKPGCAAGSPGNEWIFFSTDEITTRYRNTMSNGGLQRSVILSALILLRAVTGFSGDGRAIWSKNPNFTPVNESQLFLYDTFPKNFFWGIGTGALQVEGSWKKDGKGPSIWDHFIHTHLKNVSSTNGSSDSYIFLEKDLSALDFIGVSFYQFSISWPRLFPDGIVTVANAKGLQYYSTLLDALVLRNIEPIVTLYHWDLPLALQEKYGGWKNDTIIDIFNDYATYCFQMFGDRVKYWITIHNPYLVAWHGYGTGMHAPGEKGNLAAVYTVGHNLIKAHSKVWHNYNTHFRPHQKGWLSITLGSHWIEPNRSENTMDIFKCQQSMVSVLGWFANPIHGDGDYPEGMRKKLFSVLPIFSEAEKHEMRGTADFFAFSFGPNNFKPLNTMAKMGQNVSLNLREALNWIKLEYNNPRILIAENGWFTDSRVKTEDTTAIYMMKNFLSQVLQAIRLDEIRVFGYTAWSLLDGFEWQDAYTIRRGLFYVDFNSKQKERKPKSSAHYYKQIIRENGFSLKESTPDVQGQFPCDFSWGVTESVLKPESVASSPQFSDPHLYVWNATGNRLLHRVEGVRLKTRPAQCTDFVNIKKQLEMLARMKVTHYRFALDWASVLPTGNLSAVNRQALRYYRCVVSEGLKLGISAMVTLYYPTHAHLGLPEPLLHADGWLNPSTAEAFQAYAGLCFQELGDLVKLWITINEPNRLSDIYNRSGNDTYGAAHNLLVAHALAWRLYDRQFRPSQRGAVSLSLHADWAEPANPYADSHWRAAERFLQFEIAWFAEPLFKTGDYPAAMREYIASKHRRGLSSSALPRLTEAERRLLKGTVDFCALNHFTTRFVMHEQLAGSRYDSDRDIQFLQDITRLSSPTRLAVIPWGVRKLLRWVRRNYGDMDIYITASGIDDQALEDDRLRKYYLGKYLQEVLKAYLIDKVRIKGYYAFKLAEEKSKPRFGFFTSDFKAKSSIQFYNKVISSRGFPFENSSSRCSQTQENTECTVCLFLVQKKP
# Assays:
# [1] = biological target: cell surface receptor composed of the tyrosine kinase receptor FGFR1c and co-receptor beta-Klotho (KLB) (human, UniProt P11362 22-822; Q86Z14 1-1044); test: cell-based or functional assay
# beta-Klotho (KLB) = biological target: T1, beta-Klotho (KLB); test: BLI (Octet) off-rate screening, mAb from supernatant on anti-hIgG Fc sensor, 5 nmol/L KLB;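 note: dissociation followed for 1800 s in D-PBS plus 0.1% BSA, antibody supernatants applied at 25 µg/mL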
# Sequence of cell surface receptor composed of the tyrosine kinase receptor FGFR1c and co-receptor beta-Klotho (KLB) (P11362 22-822, one chain of several): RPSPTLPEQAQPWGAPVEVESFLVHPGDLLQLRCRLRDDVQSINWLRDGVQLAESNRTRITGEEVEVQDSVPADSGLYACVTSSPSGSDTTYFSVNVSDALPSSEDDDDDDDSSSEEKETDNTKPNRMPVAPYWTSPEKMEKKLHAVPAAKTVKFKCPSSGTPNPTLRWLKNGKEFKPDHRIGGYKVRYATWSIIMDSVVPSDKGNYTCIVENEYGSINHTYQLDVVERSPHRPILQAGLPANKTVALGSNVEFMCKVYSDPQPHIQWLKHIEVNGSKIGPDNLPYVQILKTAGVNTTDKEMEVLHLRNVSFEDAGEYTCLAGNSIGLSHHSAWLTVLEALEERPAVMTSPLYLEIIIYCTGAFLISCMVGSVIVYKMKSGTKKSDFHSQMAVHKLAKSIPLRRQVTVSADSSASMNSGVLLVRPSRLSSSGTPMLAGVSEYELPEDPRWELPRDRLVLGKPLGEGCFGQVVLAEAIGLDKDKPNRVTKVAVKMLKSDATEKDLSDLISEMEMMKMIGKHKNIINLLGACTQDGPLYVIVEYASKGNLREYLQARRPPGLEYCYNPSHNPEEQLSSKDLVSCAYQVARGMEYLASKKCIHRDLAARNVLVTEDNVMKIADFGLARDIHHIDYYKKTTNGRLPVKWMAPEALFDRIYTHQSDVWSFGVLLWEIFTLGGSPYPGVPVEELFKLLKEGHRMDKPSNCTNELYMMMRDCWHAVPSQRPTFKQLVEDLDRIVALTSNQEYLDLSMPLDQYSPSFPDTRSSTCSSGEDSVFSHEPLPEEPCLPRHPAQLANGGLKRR
Binder,"Mean E max, Luciferase gene reporter assay [1] [%]","Mean EC50, Luciferase gene reporter assay [1] [pM]",koff (beta-Klotho (KLB)) [s⁻¹]
"16H7 variant with light chain substitution N93S (antibody, human IgG4 S228P, lambda, V domains shown, IgG4 backbone was used) VH: not shown VL: SYVLTQPPSVSVAPGQTARITCGGNNIGSESVHWYQQKPGQAPVLVVYDDSDRPSGIPERFSGSNSGNTATLTISRVEAGDEADYYCQVWDGSSDHVVFGGGTKLTVLG",101,105,3.4e-05
"16H7 variant with light chain substitution S94I (antibody, human IgG4 S228P, lambda, V domains shown, IgG4 backbone was used) VH: not shown VL: SYVLTQPPSVSVAPGQTARITCGGNNIGSESVHWYQQKPGQAPVLVVYDDSDRPSGIPERFSGSNSGNTATLTISRVEAGDEADYYCQVWDGNIDHVVFGGGTKLTVLG",106,126,4.3e-05
"16H7 variant with light chain substitution V97L (antibody, human IgG4 S228P, lambda, V domains shown, IgG4 backbone was used) VH: not shown VL: SYVLTQPPSVSVAPGQTARITCGGNNIGSESVHWYQQKPGQAPVLVVYDDSDRPSGIPERFSGSNSGNTATLTISRVEAGDEADYYCQVWDGNSDHLVFGGGTKLTVLG",110,129,5.9e-05
"16H7 variant with light chain substitution S94L (antibody, human IgG4 S228P, lambda, V domains shown, IgG4 backbone was used) VH: not shown VL: SYVLTQPPSVSVAPGQTARITCGGNNIGSESVHWYQQKPGQAPVLVVYDDSDRPSGIPERFSGSNSGNTATLTISRVEAGDEADYYCQVWDGNLDHVVFGGGTKLTVLG",103,169,4.4e-05
"16H7 variant with light chain substitution S94V (antibody, human IgG4 S228P, lambda, V domains shown, IgG4 backbone was used) VH: not shown VL: SYVLTQPPSVSVAPGQTARITCGGNNIGSESVHWYQQKPGQAPVLVVYDDSDRPSGIPERFSGSNSGNTATLTISRVEAGDEADYYCQVWDGNVDHVVFGGGTKLTVLG",108,119,2.8e-05
"16H7 variant with light chain substitution V97I (antibody, human IgG4 S228P, lambda, V domains shown, IgG4 backbone was used) VH: not shown VL: SYVLTQPPSVSVAPGQTARITCGGNNIGSESVHWYQQKPGQAPVLVVYDDSDRPSGIPERFSGSNSGNTATLTISRVEAGDEADYYCQVWDGNSDHIVFGGGTKLTVLG",110,120,1.7e-05
"16H7 variant with light chain substitution S94W (antibody, human IgG4 S228P, lambda, V domains shown, IgG4 backbone was used) VH: not shown VL: SYVLTQPPSVSVAPGQTARITCGGNNIGSESVHWYQQKPGQAPVLVVYDDSDRPSGIPERFSGSNSGNTATLTISRVEAGDEADYYCQVWDGNWDHVVFGGGTKLTVLG",103,159,4.3e-05
"16H7 variant with light chain substitution N93T (antibody, human IgG4 S228P, lambda, V domains shown, IgG4 backbone was used) VH: not shown VL: SYVLTQPPSVSVAPGQTARITCGGNNIGSESVHWYQQKPGQAPVLVVYDDSDRPSGIPERFSGSNSGNTATLTISRVEAGDEADYYCQVWDGTSDHVVFGGGTKLTVLG",103,161,3.1e-05
"16H7 variant with light chain substitution N93V (antibody, human IgG4 S228P, lambda, V domains shown, IgG4 backbone was used) VH: not shown VL: SYVLTQPPSVSVAPGQTARITCGGNNIGSESVHWYQQKPGQAPVLVVYDDSDRPSGIPERFSGSNSGNTATLTISRVEAGDEADYYCQVWDGVSDHVVFGGGTKLTVLG",108,139,4e-05
"16H7 variant with light chain substitution S94F (antibody, human IgG4 S228P, lambda, V domains shown, IgG4 backbone was used) VH: not shown VL: SYVLTQPPSVSVAPGQTARITCGGNNIGSESVHWYQQKPGQAPVLVVYDDSDRPSGIPERFSGSNSGNTATLTISRVEAGDEADYYCQVWDGNFDHVVFGGGTKLTVLG",100,132,1e-07
"16H7 variant with light chain substitution S94R (antibody, human IgG4 S228P, lambda, V domains shown, IgG4 backbone was used) VH: not shown VL: SYVLTQPPSVSVAPGQTARITCGGNNIGSESVHWYQQKPGQAPVLVVYDDSDRPSGIPERFSGSNSGNTATLTISRVEAGDEADYYCQVWDGNRDHVVFGGGTKLTVLG",104,123,5.7e-05
"16H7 variant with light chain substitution S94N (antibody, human IgG4 S228P, lambda, V domains shown, IgG4 backbone was used) VH: not shown VL: SYVLTQPPSVSVAPGQTARITCGGNNIGSESVHWYQQKPGQAPVLVVYDDSDRPSGIPERFSGSNSGNTATLTISRVEAGDEADYYCQVWDGNNDHVVFGGGTKLTVLG",103,133,3.3e-05
"16H7 variant with light chain substitution V97C (antibody, human IgG4 S228P, lambda, V domains shown, IgG4 backbone was used) VH: not shown VL: SYVLTQPPSVSVAPGQTARITCGGNNIGSESVHWYQQKPGQAPVLVVYDDSDRPSGIPERFSGSNSGNTATLTISRVEAGDEADYYCQVWDGNSDHCVFGGGTKLTVLG",104,190,0.00023
"16H7 variant with light chain substitution N93Y (antibody, human IgG4 S228P, lambda, V domains shown, IgG4 backbone was used) VH: not shown VL: SYVLTQPPSVSVAPGQTARITCGGNNIGSESVHWYQQKPGQAPVLVVYDDSDRPSGIPERFSGSNSGNTATLTISRVEAGDEADYYCQVWDGYSDHVVFGGGTKLTVLG",105,108,6.5e-05
"16H7 variant with light chain substitution S94M (antibody, human IgG4 S228P, lambda, V domains shown, IgG4 backbone was used) VH: not shown VL: SYVLTQPPSVSVAPGQTARITCGGNNIGSESVHWYQQKPGQAPVLVVYDDSDRPSGIPERFSGSNSGNTATLTISRVEAGDEADYYCQVWDGNMDHVVFGGGTKLTVLG",101,117,1.2e-05
"16H7 variant with light chain substitution S94A (antibody, human IgG4 S228P, lambda, V domains shown, IgG4 backbone was used) VH: not shown VL: SYVLTQPPSVSVAPGQTARITCGGNNIGSESVHWYQQKPGQAPVLVVYDDSDRPSGIPERFSGSNSGNTATLTISRVEAGDEADYYCQVWDGNADHVVFGGGTKLTVLG",99,107,4.6e-05
"16H7 variant with light chain substitution S94E (antibody, human IgG4 S228P, lambda, V domains shown, IgG4 backbone was used) VH: not shown VL: SYVLTQPPSVSVAPGQTARITCGGNNIGSESVHWYQQKPGQAPVLVVYDDSDRPSGIPERFSGSNSGNTATLTISRVEAGDEADYYCQVWDGNEDHVVFGGGTKLTVLG",100,122,1.4e-05
"16H7 variant with light chain substitution V97F (antibody, human IgG4 S228P, lambda, V domains shown, IgG4 backbone was used) VH: not shown VL: SYVLTQPPSVSVAPGQTARITCGGNNIGSESVHWYQQKPGQAPVLVVYDDSDRPSGIPERFSGSNSGNTATLTISRVEAGDEADYYCQVWDGNSDHFVFGGGTKLTVLG",45,3020,2.1e-05
"16H7 variant with light chain substitution V97M (antibody, human IgG4 S228P, lambda, V domains shown, IgG4 backbone was used) VH: not shown VL: SYVLTQPPSVSVAPGQTARITCGGNNIGSESVHWYQQKPGQAPVLVVYDDSDRPSGIPERFSGSNSGNTATLTISRVEAGDEADYYCQVWDGNSDHMVFGGGTKLTVLG",103,214,3.3e-05
"16H7 variant with light chain substitution S94C (antibody, human IgG4 S228P, lambda, V domains shown, IgG4 backbone was used) VH: not shown VL: SYVLTQPPSVSVAPGQTARITCGGNNIGSESVHWYQQKPGQAPVLVVYDDSDRPSGIPERFSGSNSGNTATLTISRVEAGDEADYYCQVWDGNCDHVVFGGGTKLTVLG",99,138,1e-07
"16H7 variant with light chain substitution S94Y (antibody, human IgG4 S228P, lambda, V domains shown, IgG4 backbone was used) VH: not shown VL: SYVLTQPPSVSVAPGQTARITCGGNNIGSESVHWYQQKPGQAPVLVVYDDSDRPSGIPERFSGSNSGNTATLTISRVEAGDEADYYCQVWDGNYDHVVFGGGTKLTVLG",100,98,6.2e-05
"16H7 variant with light chain substitution S94T (antibody, human IgG4 S228P, lambda, V domains shown, IgG4 backbone was used) VH: not shown VL: SYVLTQPPSVSVAPGQTARITCGGNNIGSESVHWYQQKPGQAPVLVVYDDSDRPSGIPERFSGSNSGNTATLTISRVEAGDEADYYCQVWDGNTDHVVFGGGTKLTVLG",109,116,3.2e-05
"16H7 variant with light chain substitution S94D (antibody, human IgG4 S228P, lambda, V domains shown, IgG4 backbone was used) VH: not shown VL: SYVLTQPPSVSVAPGQTARITCGGNNIGSESVHWYQQKPGQAPVLVVYDDSDRPSGIPERFSGSNSGNTATLTISRVEAGDEADYYCQVWDGNDDHVVFGGGTKLTVLG",103,122,3.4e-05
